T1: CLIP-6Myc-FLAG-TEV-Myc-Drosha (human, UniProt Q9NRR4 1-1374, CLIP-surface 547 or CLIP-surface 488 fluorophore on the CLIP tag)
T1 sequence: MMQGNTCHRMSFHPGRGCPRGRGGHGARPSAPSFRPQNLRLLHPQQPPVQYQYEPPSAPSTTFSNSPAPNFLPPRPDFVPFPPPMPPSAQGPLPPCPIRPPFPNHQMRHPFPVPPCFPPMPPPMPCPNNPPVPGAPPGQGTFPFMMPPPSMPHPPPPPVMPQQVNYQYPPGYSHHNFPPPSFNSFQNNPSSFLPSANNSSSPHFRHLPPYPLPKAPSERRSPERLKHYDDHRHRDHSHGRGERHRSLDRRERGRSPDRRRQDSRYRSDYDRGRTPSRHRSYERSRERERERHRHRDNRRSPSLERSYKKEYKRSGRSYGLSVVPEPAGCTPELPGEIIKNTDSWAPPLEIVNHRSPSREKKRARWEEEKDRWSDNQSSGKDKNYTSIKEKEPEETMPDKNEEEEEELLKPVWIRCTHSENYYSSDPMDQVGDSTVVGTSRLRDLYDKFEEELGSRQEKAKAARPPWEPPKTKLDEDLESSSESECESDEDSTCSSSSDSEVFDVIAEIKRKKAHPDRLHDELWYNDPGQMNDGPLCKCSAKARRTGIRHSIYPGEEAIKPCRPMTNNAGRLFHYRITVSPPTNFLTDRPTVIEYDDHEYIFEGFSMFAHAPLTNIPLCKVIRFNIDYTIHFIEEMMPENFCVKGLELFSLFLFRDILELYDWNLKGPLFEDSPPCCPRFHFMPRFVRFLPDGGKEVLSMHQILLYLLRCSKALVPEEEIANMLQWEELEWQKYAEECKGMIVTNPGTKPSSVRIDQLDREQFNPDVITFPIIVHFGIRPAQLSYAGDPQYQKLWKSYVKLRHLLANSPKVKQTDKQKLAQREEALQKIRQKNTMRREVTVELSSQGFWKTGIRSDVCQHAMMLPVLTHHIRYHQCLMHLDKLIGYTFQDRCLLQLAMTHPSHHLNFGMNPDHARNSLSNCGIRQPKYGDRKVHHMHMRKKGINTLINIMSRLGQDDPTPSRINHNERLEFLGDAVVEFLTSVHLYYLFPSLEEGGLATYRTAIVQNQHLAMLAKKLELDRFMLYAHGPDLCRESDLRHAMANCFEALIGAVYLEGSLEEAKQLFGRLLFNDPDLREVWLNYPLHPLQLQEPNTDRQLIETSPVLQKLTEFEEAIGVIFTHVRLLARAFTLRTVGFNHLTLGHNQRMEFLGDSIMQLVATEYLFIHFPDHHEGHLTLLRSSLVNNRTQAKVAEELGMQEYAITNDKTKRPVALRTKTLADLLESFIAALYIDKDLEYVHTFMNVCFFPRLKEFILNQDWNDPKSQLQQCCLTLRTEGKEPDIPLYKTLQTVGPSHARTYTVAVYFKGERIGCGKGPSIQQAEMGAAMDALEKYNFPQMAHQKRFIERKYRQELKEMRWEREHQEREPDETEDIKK


Assays:
[1] = target: the molecule itself; test: single-molecule immunoprecipitation with subunit counting by photobleaching
[2] = target: T1, CLIP-6Myc-FLAG-TEV-Myc-Drosha; test: as above
[3] = target: the molecule itself; test: SEC + other: glycerol gradient centrifugation

Binder	stoichiometry N [1] [DGCR8 per complex]	stoichiometry N [2] [DGCR8 per Drosha]	stoichiometry N [3] [SNAP-DGCR8 per complex]
SNAP-DGCR8 (natural protein, SNAP-surface Alexa fluor 546 or SNAP-surface Alexa fluor 647 on the SNAP tag) METDESPSPLPCGPAGEAVMESRARPFQALPREQSPPPPLQTSSGAEVMDVGSGGDGQSELPAEDPFNFYGASLLSKGSFSKGRLLIDPNCSGHSPRTARHAPAVRKFSPDLKLLKDVKISVSFTESCRSKDRKVLYTGAERDVRAECGLLLSPVSGDVHACPFGGSVGDGVGIGGESADKKDEENELDQEKRVEYAVLDELEDFTDNLELDEEGAGGFTAKAIVQRDRVDEEALNFPYEDDFDNDVDALLEEGLCAPKKRRTEEKYGGDSDHPSDGETSVQPMMTKIKTVLKSRGRPPTEPLPDGWIMTFHNSGVPVYLHRESRVVTWSRPYFLGTGSIRKHDPPLSSIPCLHYKKMKDNEEREQSSDLTPSGDVSPVKPLSRSAELEFPLDEPDSMGADPGPPDEKDPLGAEAAPGALGQVKAKVEVCKDESVDLEEFRSYLEKRFDFEQVTVKKFRTWAERRQFNREMKRKQAESERPILPANQKLITLSVQDAPTKKEFVINPNGKSEVCILHEYMQRVLKVRPVYNFFECENPSEPFGASVTIDGVTYGSGTASSKKLAKNKAARATLEILIPDFVKQTSEEKPKDSEELEYFNHISIEDSRVYELTSKAGLLSPYQILHECLKRNHGMGDTSIKFEVVPGKNQKSEYVMACGKHTVRGWCKNKRVGKQLASQKILQLLHPHVKNWGSLLRMYGRESSKMVKQETSDKSVIELQQYAKKNKPNLHILSKLQEEMKRLAEEREETRKKPKMSIVASAQPGGEPLCTVDV	2	2	
FLAG-SNAP-DGCR8 (natural protein, SNAP-surface 546 Alexa fluorophore on the SNAP tag in a portion of the sample) METDESPSPLPCGPAGEAVMESRARPFQALPREQSPPPPLQTSSGAEVMDVGSGGDGQSELPAEDPFNFYGASLLSKGSFSKGRLLIDPNCSGHSPRTARHAPAVRKFSPDLKLLKDVKISVSFTESCRSKDRKVLYTGAERDVRAECGLLLSPVSGDVHACPFGGSVGDGVGIGGESADKKDEENELDQEKRVEYAVLDELEDFTDNLELDEEGAGGFTAKAIVQRDRVDEEALNFPYEDDFDNDVDALLEEGLCAPKKRRTEEKYGGDSDHPSDGETSVQPMMTKIKTVLKSRGRPPTEPLPDGWIMTFHNSGVPVYLHRESRVVTWSRPYFLGTGSIRKHDPPLSSIPCLHYKKMKDNEEREQSSDLTPSGDVSPVKPLSRSAELEFPLDEPDSMGADPGPPDEKDPLGAEAAPGALGQVKAKVEVCKDESVDLEEFRSYLEKRFDFEQVTVKKFRTWAERRQFNREMKRKQAESERPILPANQKLITLSVQDAPTKKEFVINPNGKSEVCILHEYMQRVLKVRPVYNFFECENPSEPFGASVTIDGVTYGSGTASSKKLAKNKAARATLEILIPDFVKQTSEEKPKDSEELEYFNHISIEDSRVYELTSKAGLLSPYQILHECLKRNHGMGDTSIKFEVVPGKNQKSEYVMACGKHTVRGWCKNKRVGKQLASQKILQLLHPHVKNWGSLLRMYGRESSKMVKQETSDKSVIELQQYAKKNKPNLHILSKLQEEMKRLAEEREETRKKPKMSIVASAQPGGEPLCTVDV			2

— paper PMC4712668 (RNA, 2016)
